Data on two molecules can be found in patent US7045617 (MOUNT SINAI SCHOOL OF MEDICINE, dated 2006).

Assay [1] has as its target T1, recombinant mouse protein kinase A (catalytic subunit) (mouse, UniProt P05132 2-351). In words: PKA radiometric kinase assay with biotinylated kemptide, Dixon plot, versus ATP. On the procedure: (§1) Reagents from Calbiochem's Protein Kinase A kit were used to perform the inhibition assays and recombinant mouse PKA (catalytic subunit) was also purchased from Calbiochem (enzyme concentration was established by Bradford analysis). […] These were further diluted into water to produce a range of inhibitor solutions between 51 μM and 507 nM. An 11.25 μL aliquot from each of these solutions was pre-incubated with 7.5 μL of a 1.75 nM PKA enzyme solution (750 ug/uL bovine serum albumin) for 10 minutes at 30° C. after which 12.5 μL of pre-incubation mix was added to 12.5 μL of reaction mix (30 μM cold ATP, 50 μM biotinylated kemptide substrate, 0.04 uCi/μL γP-32 ATP, 80 mM Tris-HCl, 10 mM MgCl_2, pH 7.5) to initiate the enzymatic reaction. […] The columns were placed in scintillation vials and radioactivity was measured using a scintillation counter.

Assay [2] has as its target T1, recombinant mouse protein kinase A …. In words: PKA radiometric kinase assay, Dixon plot, adjusted to zero substrate. On the procedure:
as §1

Assay [3] addresses protein tyrosine kinase Csk (UniProt P41240 1-450, limits assumed). Put plainly: Csk kinase inhibition assay.

Side-chain parts run from the residue outwards. [ ]: non-standard residue; d: D form. Phe(4-NH2) = Nc1ccc(C[C@H](N)C(=O)O)cc1; Dap = NC[C@H](N)C(=O)O

Chain of protein tyrosine kinase Csk (P41240 whole entry): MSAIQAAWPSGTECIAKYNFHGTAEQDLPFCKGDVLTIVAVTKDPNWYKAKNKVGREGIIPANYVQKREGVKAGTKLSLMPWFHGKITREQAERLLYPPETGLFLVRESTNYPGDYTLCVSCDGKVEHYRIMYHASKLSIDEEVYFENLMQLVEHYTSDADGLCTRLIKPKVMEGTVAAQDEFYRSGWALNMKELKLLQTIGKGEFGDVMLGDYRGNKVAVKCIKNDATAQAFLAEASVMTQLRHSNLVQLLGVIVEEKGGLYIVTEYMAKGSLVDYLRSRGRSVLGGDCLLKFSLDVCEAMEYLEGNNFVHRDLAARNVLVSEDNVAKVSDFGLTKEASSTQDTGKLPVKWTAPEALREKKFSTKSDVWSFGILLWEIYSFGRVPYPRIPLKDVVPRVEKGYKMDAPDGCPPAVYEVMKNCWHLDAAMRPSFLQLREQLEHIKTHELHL

As a reminder, the Ki is a measure of affinity in units of concentration, obtained from inhibition or displacement. Consider Ac-LRRA[Dap]([Ac-ATPγS])LG-OH [kemptide-ATPγS conjugate], for which the results for the Ki in assay [1] and in assay [2] were 9.56 µM and 4.6 µM, respectively. For Ac-KKKLPATGD[Phe(4-NH2)]([Ac-ATPγS])MNMSPVGD-OH (also called bisubstrate analog 2) [Compound 2 (peptide-ATP bisubstrate analog; IRS727 peptide linked to ATPγS through an acetyl linker)], the Ki in assay [3] was around 40 µM.
